{
  "source": "paper PMC3854527",
  "key": {"Sub2p wt": {"target": "T1, Sub2p wt (Saccharomyces cerevisiae, UniProt Q07478 1-446)", "T1 sequence": "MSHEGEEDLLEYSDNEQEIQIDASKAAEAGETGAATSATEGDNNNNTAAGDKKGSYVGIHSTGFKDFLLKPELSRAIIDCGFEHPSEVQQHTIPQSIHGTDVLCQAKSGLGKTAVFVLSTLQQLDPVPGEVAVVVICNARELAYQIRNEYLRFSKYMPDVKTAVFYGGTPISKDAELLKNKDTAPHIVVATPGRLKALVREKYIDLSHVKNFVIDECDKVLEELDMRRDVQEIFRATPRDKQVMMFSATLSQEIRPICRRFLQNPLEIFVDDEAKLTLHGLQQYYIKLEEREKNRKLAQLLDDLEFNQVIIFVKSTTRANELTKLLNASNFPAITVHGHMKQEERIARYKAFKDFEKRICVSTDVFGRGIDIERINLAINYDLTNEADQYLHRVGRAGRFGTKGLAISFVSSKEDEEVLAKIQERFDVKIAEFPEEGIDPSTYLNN", "assay": "EMSA"}, "Sub2p Y12S": {"target": "T2, Sub2p Y12S (Saccharomyces cerevisiae, UniProt Q07478 1-446, Y12S)", "T2 sequence": "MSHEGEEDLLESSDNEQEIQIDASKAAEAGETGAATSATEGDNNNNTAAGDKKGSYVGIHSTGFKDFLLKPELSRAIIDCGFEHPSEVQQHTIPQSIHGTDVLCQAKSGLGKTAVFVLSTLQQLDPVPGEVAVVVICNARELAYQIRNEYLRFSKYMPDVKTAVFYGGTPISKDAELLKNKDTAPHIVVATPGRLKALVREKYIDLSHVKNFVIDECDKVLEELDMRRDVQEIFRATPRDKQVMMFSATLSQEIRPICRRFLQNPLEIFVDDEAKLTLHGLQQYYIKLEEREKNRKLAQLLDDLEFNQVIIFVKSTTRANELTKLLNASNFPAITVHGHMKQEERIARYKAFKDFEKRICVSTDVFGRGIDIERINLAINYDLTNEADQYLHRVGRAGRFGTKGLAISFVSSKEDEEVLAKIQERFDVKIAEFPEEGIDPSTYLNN", "assay": "EMSA"}},
  "data": [
    {"binder": "AGCACCGUAAAGC (ssRNA)", "note": "[13-mer ssRNA]", "values": [
      {"measurement": "binding result", "setting": "Sub2p wt", "value": "binds"},
      {"measurement": "binding result", "setting": "Sub2p Y12S", "value": "binds"}
    ]}
  ]
}
